Source: patent US20190225662A1

Biological target: GABABR1a on mouse hippocampal neurons (cultures and slices) (mouse), Q9WV18
Assay: cell-based or functional assay

Chain of GABABR1a on mouse hippocampal neurons (cultures and slices) (mouse), Q9WV18 (Q9WV18 20-960): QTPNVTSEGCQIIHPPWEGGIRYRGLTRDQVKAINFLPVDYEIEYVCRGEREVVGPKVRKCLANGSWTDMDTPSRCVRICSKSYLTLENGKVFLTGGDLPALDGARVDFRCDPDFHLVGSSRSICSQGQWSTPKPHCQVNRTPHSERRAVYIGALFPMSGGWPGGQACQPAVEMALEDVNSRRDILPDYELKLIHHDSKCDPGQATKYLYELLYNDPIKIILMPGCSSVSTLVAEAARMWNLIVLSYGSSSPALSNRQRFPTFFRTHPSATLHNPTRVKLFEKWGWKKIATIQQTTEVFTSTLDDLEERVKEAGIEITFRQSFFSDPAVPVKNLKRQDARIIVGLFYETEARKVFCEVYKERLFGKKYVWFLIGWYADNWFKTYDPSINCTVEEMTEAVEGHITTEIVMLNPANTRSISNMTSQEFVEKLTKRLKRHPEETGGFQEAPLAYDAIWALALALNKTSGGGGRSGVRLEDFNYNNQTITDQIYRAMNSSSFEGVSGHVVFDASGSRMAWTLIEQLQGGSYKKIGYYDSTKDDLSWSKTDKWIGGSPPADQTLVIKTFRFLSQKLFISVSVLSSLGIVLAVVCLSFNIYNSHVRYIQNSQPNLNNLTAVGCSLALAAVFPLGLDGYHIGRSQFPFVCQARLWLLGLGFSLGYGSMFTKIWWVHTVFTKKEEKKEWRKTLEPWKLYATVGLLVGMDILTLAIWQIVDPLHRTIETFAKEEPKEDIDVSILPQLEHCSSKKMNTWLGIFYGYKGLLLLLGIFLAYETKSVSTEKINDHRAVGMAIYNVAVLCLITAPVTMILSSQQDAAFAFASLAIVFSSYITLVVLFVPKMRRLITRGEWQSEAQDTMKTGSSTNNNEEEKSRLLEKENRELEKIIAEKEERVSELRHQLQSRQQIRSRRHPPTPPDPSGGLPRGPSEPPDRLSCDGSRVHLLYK

- reduction of the frequency of miniature excitatory postsynaptic currents (mEPSCs), 250 nM sAPPα, primary hippocampal neurons: 39%
- reduction of the frequency of miniature inhibitory postsynaptic currents (mIPSCs), 250 nM sAPPα, primary hippocampal neurons: 44%
- reduction of total presynaptic strength (S=ΔF×D), FM1-43 synaptic vesicle recycling, cultured hippocampal neurons: 57%
- reduction on mIPSC amplitude: 14%
B1: sAPPα (Fc cleaved), P12023 18-687 (ligand)
chain: LEVPTDGNAGLLAEPQIAMFCGKLNMHMNVQNGKWESDPSGTKTCIGTKEGILQYCQEVYPELQITNVVEANQPVTIQNWCKRGRKQCKTHTHIVIPYRCLVGEFVSDALLVPDKCKFLHQERMDVCETHLHWHTVAKETCSEKSTNLHDYGMLLPCGIDKFRGVEFVCCPLAEESDSVDSADAEEDDSDVWWGGADTDYADGGEDKVVEVAEEEEVADVEEEEADDDEDVEDGDEVEEEAEEPYEEATERTTSTATTTTTTTESVEEVVRVPTTAASTPDAVDKYLETPGDENEHAHFQKAKERLEAKHRERMSQVMREWEEAERQAKNLPKADKKAVIQHFQEKVESLEQEAANERQQLVETHMARVEAMLNDRRRLALENYITALQAVPPRPHHVFNMLKKYVRAEQKDRQHTLKHFEHVRMVDPKKAAQIRSQVMTHLRVIYERMNQSLSLLYNVPAVAEEIQDEVDELLQKEQNYSDDVLANMISEPRISYGNDALMPSLTETKTTVELLPVNGEFSLDDLQPWHPFGVDSVPANTENEVEPVDARPAADRGLTTRPGSGLTNIKTEEISEVKMDAEFGHDSGFEVRHQK
